The target of one assay is recombinant TIRAP (Homo sapiens, UniProt P58753). Particulars: cited from earlier work.
The next assay has as its target T1, TIRAP TIR (Homo sapiens, UniProt P58753).
T1 construct: fused with TLR9 TIR or TIRAP TIR; expressed in transfected cells; host or cells: HeLa
The experiment in a line: FLIM/FRET binding of Cy3-labeled peptides to Cer-fused TIR in HeLa cells. The settings on record: HeLa cells, Cy3-peptide 2.5-40 μM, 1 hour. The method, then: Three million HeLa cells were transfected with 10 μg of MyD88-Cer, TIRAP-Cer, TRAM-Cer, TLR2-Cer, TLR4 TIR-Cer, or TLR9 TIR-Cer expression vectors using a Lipofectamine™ 3000 kit from Invitrogen™ per manufacturer recommendations. Twenty four hours later, the transfected cells were trypsinized and reseeded into a 50-well gasket (Grace Bio-Labs™) mounted on a microscope slide at the density 8000 cells/well. The next day, cells were treated with Cy3-9R34-ΔN or Cy3-9R11 for 1 hour and fixed on the slides with a 4% paraformaldehyde solution.
Fluorescence lifetime images were acquired using the Alba V FLIM™ system (ISS™ Inc.). The excitation was from the laser diode 443 nm coupled with scanning module (ISS™) through multiband dichroic filter 443/532/635 nm (Semrock™) to Olympus™ IX71S microscope with objective 20×0.45 NA (UPlan™ Olympus™). Emission was observed through bandpass filter […] (Chroma Technology™) and detected by a photomultiplier H7422-40 (Hamamatsu™). Measurements were performed using frequency domain (FD) and time domain (TD) modalities of the FLIM system. FD FLIM data were acquired using ISS™ A320 FastFLIM™ electronics with n harmonics of 20 MHz laser repetition frequency (n=1, 2, 3, 4, 5, 6). FastFLIM™ was calibrated using fluorescein in buffer pH 8.0 as a standard with a single lifetime of 4.0 ns. TD FLIM images were acquired using time-correlated single photon counting TCSPC™ Model SPC-830 (Becker & Hick™).
Images (256×256 pixels) were acquired with resolution varied in the range ˜0.4-0.7 μm/pixel, using scan speed 1 ms/pixel. To avoid pixel intensity saturation in bright cells and to improve the signal from dim cells, two to five overlapping scans were used for acquisition of FLIM images. Image sizes varied from 100×100 to 180×180 μm to accommodate multiple cells. FLIM data were analyzed with VistaVision™ Suite software (Vista™ v.212 from ISST). Fluorescence lifetime was determined using single- and bi-exponential intensity decay models. Average lifetime images were generated based on pixel-by-pixel analysis using the combined signal of two neighboring pixels in all directions (bin 2=25 pixels). The binning was used to improve the signal for analysis. The average lifetimes were calculated from fitted parameters, decay times τi and amplitudes αi, τa=Σαiτi. The bi-exponential fitting procedure was performed with one lifetime component fixed at 3.1 nsec, which was found common for most images. To calculate the effective FRET efficiency (E), average lifetimes of the donor only images (τD) and donor-acceptor images (τDA) were used, E=1−τDA/τD.
To identify potential binding partners of inhibitory peptides a FRET approach coupled with Fluorescence Lifetime Imaging Microscopy (FLIM) was used. HeLa cells were transiently transfected with an expression vector that encodes a TIR domain fused with Cerulean fluorescent protein (Cer). Cells were treated with various concentrations of a Cy3-labeled inhibitory peptide 48 hours after transfection. Cy3 is a suitable FRET acceptor for Cer fluorescence. A direct molecular interaction of a Cy3-labeled peptide with Cer-fused TIR domain should quench Cer fluorescence, leading to a decreased fluorescence lifetime.
TLR9, MyD88, and TIRAP were selected as potential primary binding partners for Cy3-9R34-ΔN and Cy3-9R11. Cer-fused TLR2 and TLR4 TIR domains, and Cer not fused to a TIR, were used as controls. […] Therefore, the TIRAP-Cer with Cy3-2R9 was used as a positive binding control. Binding of Cy3-labeled CPDPs to Cerulean- (Cer-) labeled TIR domains was tested as follows. Fluorescence Lifetime IMages (FLIM) were made of HeLa cells expressing Cer not fused with a TIR domain (upper row) or fused with TLR9 TIR or TIRAP TIR (middle and bottom rows) and treated with a Cy3-labeled decoy peptide for 1 hour.
A progressive shift of average fluorescence lifetime towards lower values observed with increasing peptide concentrations indicates the binding between donor and acceptor moieties. […]

The test system of the next assay is TLR2/1 signaling. The experiment in a line: Plasma cytokines after i.p. Pam3C in mice. Type of assay: in vivo, C57BL/6J mice. Particulars: peptide 200 nmol/mouse i.p.; Pam3C 67 nmol/mouse. Here is the method:
Systemic cytokine levels were measured in plasma samples obtained 1, 3, and 5 hours after intraperitoneal (i.p.) administration of 7.86 nmol (50 μg) of ODN 1668 or 67 nmol of Pam3C per mouse, using ELISA kits from Biolegend™ Inc. CPDP were dissolved in PBS and administered i.p. at the dose of 200 nmol per mouse 1 hour before administration of a TLR agonist. For survival experiments, mice were sensitized to TLR9 agonists by i.p. injection of 20 mg of D-Gal 30 minutes before administration of peptides or PBS. ODN 1668 was used at the doses of 3.93 or 7.86 nmol/mouse (25 or 50 μg/mouse) 1.5 hours after D-Gal. Animal survival was monitored for 50 hours. All agents were administered i.p. in 500 μL volume of PBS. […]
To test the in vivo efficacy and specificity of 9R34-ΔN, C57BL/6J mice were mock-treated or treated i.p. with a single dose of inhibitory or control peptide (200 nmol/mouse) and challenged with TLR9 agonist ODN 1668 (7.86 nmol/mouse) or TLR2/1 agonist Pam3C (67 nmol/mouse) 1 hour later. Plasma concentrations of TNFα and IL-12-p40 were measured 1, 3, and 5 hours after the challenge. […]
Plasma TNFα and IL-12-p40 levels following intraperitioneal administration of ODN 1668 to C57Bl/6J mice in peptide-pretreated and control mice are shown in FIG. 14A and FIG. 14B. […] The statistical significance of changes in cytokine concentrations was determined by a two-way ANOVA test; *p<0.001.

The subject of the next assay is TLR9 signaling. The experiment in a line: Plasma cytokines after i.p. ODN 1668 in mice. Type of assay: in vivo, C57BL/6J mice. Particulars: peptide 200 nmol/mouse i.p.; ODN 1668 7.86 nmol/mouse. The method, then: Systemic cytokine levels were measured in plasma samples obtained 1, 3, and 5 hours after intraperitoneal (i.p.) administration of 7.86 nmol (50 μg) of ODN 1668 or 67 nmol of Pam3C per mouse, using ELISA kits from Biolegend™ Inc. CPDP were dissolved in PBS and administered i.p. at the dose of 200 nmol per mouse 1 hour before administration of a TLR agonist. For survival experiments, mice were sensitized to TLR9 agonists by i.p. injection of 20 mg of D-Gal 30 minutes before administration of peptides or PBS. ODN 1668 was used at the doses of 3.93 or 7.86 nmol/mouse (25 or 50 μg/mouse) 1.5 hours after D-Gal. Animal survival was monitored for 50 hours. All agents were administered i.p. in 500 μL volume of PBS. Animals had free access to food and water during the observation period. All animal experiments were conducted in accordance with the national guidelines for the care and use of laboratory animals under a protocol that was approved by the UMB IACUC.
To test the in vivo efficacy and specificity of 9R34-ΔN, C57BL/6J mice were mock-treated or treated i.p. with a single dose of inhibitory or control peptide (200 nmol/mouse) and challenged with TLR9 agonist ODN 1668 (7.86 nmol/mouse) or TLR2/1 agonist Pam3C (67 nmol/mouse) 1 hour later. Plasma concentrations of TNFα and IL-12-p40 were measured 1, 3, and 5 hours after the challenge. Both TLR agonists increased concentrations of TNFα and IL-12-p40 in 1 hour samples from below the limit of detection to about 1.2 and about 6 ng/mL in the case of ODN 1668, and to 0.12 ng/mL and 1 ng/mL after treatment with Pam3C.
Plasma TNFα and IL-12-p40 levels following intraperitioneal administration of ODN 1668 to C57Bl/6J mice in peptide-pretreated and control mice are shown in FIG. 14A and FIG. 14B. Data shown in these figures represent the means±SEM obtained in at least three independent experiments. The statistical significance of changes in cytokine concentrations was determined by a two-way ANOVA test; *p<0.001.

No end group written: not given here.

Chain of recombinant TIRAP (P58753 whole entry): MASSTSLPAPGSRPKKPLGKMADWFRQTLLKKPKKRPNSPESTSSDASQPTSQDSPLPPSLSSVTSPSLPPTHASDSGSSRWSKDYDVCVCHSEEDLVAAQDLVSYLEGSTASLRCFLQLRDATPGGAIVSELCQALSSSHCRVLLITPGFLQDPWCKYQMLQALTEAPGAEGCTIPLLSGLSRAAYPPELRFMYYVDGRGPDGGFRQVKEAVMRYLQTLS
T1 sequence (P58753 84-213 limits assumed): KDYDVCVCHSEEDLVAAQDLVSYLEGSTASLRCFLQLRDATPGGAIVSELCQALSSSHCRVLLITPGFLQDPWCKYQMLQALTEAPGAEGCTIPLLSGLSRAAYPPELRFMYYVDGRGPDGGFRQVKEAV

As to “PQRFCKLRKIMNT (also: Cy3 label, position not given here) [Peptide 2R9, reference compound]”, the “affinity for recombinant TIRAP” value with recombinant TIRAP is reported as “nanomolar”. In the assay with TIRAP TIR, the “quenching of TIRAP-Cer fluorescence” value was “slightly higher than for the TLR9-9R34-ΔN pair”. For the same sequence, the “Pam3C-induced plasma cytokine levels (TNFα, IL-12-p40)” value with TLR2/1 signaling is “suppressed cytokine induction”. Further, the “ODN 1668-induced plasma cytokine levels (TNFα, IL-12-p40)” value with TLR9 signaling is listed as “suppressed cytokine induction”.

The values above are taken from patent US12084521B2, “TLR9 inhibitors to suppress inflammatory response to pathogens” (University Of Maryland, Baltimore, priority 2018, dated 2024).
